The values that follow come from paper PMC10681723, “The N-terminus of Spt16 anchors FACT to MCM2–7 for parental histone recycling” (Nucleic Acids Research, 2023).

This experiment concerns the target Recombinant Saccharomyces cerevisiae histone H3/H4 (Saccharomyces cerevisiae, UniProt P61830 1-136; P02309 1-103). Nature of the experiment: pull-down; 2 μg GST-Mcm2HBD on Glutathione Sepharose; 0.1, 0.2 and 0.4 μg histone H3/H4 in 0.4 ml buffer A150 (25 mM Tris pH 7.5, 1 mM EDTA, 0.01% NP-40, 150 mM NaCl), 6 h, 4°C; CBB staining. Particulars: both partners purified.

B1: GST-tagged Mcm2HBD (residues 1–200) (domain or fragment, yeast, UniProt P29469 1-200, looked up)
chain: MSDNRRRRREEDDSDSENELPPSSPQQHFRGGMNPVSSPIGSPDMINPEGDDNEVDDVPDIDEVEEQMNEVDLMDDNMYEDYAADHNRDRYDPDQVDDREQQELSLSERRRIDAQLNERDRLLRNVAYIDDEDEEQEGAAQLDEMGLPVQRRRRRRQYEDLENSDDDLLSDMDIDPLREELTLESLSNVKANSYSEWITQ
notes: also called GST-Mcm2HBD; source: E. coli BL21(DE3) CodonPlus RIL, pGEX4T-1, purified (Glutathione Sepharose)
For the molecule B1, the binding result was “binds”.
